This test concerns the target AP-DT/AA-LRRTM2 (UniProt O43300). Kind of test: immunostaining of cells or tissue; Nrxn-binding assay: live COS-7 cells expressing biotinylated AP-LRRTM2 (WT or mutants), BirA-ER and EGFP incubated 20 min with Nrxn solution (2 µg Nrxn-1β-Fc + 1.3 µg AlexaFluor647 anti-human Fc), then labelled with mSA-ATTO565 in Tyrode's solution (2 mM CaCl2, pH 7.4) and imaged live; Nrxn1β-Fc surface intensity normalised to AP-LRRTM2 expression.

Our source for the percent loss of Nrxn1β-Fc binding against AP-LRRTM2-WT values is article PMC11470055.

UniProt O43300, sequence (O43300 34-516 D259A/T261A): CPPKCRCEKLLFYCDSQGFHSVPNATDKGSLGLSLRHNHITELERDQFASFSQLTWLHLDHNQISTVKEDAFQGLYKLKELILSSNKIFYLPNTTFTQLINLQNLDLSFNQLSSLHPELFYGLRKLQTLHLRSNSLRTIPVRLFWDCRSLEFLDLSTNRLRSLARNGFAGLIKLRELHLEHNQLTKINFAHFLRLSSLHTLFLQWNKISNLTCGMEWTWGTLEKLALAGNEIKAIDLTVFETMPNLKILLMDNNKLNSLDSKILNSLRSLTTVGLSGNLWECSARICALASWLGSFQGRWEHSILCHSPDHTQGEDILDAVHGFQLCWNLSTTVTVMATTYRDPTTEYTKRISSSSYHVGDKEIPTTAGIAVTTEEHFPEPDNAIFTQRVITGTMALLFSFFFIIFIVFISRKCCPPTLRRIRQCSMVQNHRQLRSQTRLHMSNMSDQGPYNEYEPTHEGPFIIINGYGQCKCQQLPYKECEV

In the case of Nrxn1β-Fc (-SS4) (Fc fusion), the percent loss of Nrxn1β-Fc binding against AP-LRRTM2-WT came out at 50%.
